Among the data in patent publication US20140186370A1 are % inhibition values, retold here.

In the test the target is vaccinia virus B5R 6xHis protein (baculovirus-expressed soluble extracellular domain) (vaccinia virus).

The % inhibition is the percentage by which the read-out fell short of the control. Consider Hum IgG1 isotype control (antibody), for which the % inhibition is 0%.
